Data published in publication PMC10046738, “Detection of Alpha Fetoprotein Based on AIEgen Nanosphere Labeled Aptamer Combined with Sandwich Structure of Magnetic Gold Nanocomposites”.

Target: T1, alpha-fetoprotein (AFP) (UniProt P02771 19-609)
T1 sequence: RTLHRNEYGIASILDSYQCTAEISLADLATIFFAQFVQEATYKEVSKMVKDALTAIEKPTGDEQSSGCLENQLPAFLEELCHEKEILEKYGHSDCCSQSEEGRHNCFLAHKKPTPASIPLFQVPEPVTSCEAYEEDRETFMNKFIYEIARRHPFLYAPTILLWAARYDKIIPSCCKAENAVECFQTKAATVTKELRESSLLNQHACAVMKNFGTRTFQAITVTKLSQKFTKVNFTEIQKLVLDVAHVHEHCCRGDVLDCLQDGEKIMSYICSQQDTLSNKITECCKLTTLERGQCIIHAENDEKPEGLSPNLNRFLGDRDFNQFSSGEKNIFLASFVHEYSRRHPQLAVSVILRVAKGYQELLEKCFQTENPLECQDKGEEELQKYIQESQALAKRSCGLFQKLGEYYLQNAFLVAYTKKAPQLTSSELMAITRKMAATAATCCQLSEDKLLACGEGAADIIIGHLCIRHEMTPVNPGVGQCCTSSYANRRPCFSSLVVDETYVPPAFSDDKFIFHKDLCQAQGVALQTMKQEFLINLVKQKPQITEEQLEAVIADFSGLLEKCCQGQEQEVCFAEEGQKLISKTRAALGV
Test: fluorescence sandwich aptasensor (magnetic capture); capture aptamer on Fe3O4@MPTMS@AuNPs; AFP 0.005-10 ng/mL; LOD 1.429 pg/mL is not a Kd; PBS 10 mM, pH 7.4 (aptamer 1 immobilization); room temperature, 30 min AFP then 30 min aptamer 2; 15 nM aptamer 1, 8 ug/mL AIEgen aptamer 2, 10 ug/mL Fe3O4@MPTMS@AuNPs
Details: label: immobilized on Fe3O4@MPTMS@AuNPs

B1: Aptamer 1 (AFP aptamer, 3'-SH) (ssDNA)
DNA: GTGACGCTCCTAACGCTGACTCAGGTGCAGTTCTCGACTCGGTCTTGATGTGGGTCCTGTCCGTCCGAACCAATC
modifications: 3'-thiol
binding result: binds
